{"source": "paper PMC12093976", "about": "“Characterization of 2-phenanthroyl-CoA reductase, an ATP-independent type III aryl-CoA reductase involved in anaerobic phenanthrene degradation” (Applied and Environmental Microbiology, 2025)", "tested_on": "T1, CC(C)(COP(=O)(O)OP(=O)(O)OC[C@H]1O[C@@H](n2cnc3c(N)ncnc32)[C@H](O)[C@@H]1OP(=O)(O)O)[C@@H](O)C(=O)NCCC(=O)NCCSC(=O)c1ccc2c(ccc3ccccc32)c1", "T1 construct": "codon-optimized gene in pASG-IBA103, C-terminal twin-Strep-tag, E. coli BL21(DE3); 72 kDa monomer; FMN, FAD, [4Fe-4S]; primers encode N-terminal MKLFEPIK and C-terminal LAALH", "test": "LC/MS of dihydro-2-phenanthroyl-CoA formation, initial rates", "format": "biochemical, uncultured Desulfobacterium sp.", "settings": "dithionite-reduced methyl viologen as electron donor, 1 mM NADH, 50 µM FMN, 1 mM FAD, 50 mM HEPES pH 7.5, 30 °C, anoxic, substrate varied 2-100 µM", "from_the_text": "LC/MS of dihydro-2-phenanthroyl-CoA formation, initial rates on 2-phenanthroyl-CoA reductase", "data": [{"substance": "2-phenanthroyl-CoA reductase (uncultured Desulfobacterium sp.)", "values": [{"measurement": "Km", "result": 1.8, "unit": "µM"}, {"measurement": "Vmax", "result": 7.9, "unit": "µmol/min/mg"}]}]}
